{"source": "IntAct's records for PubMed 15064722", "parents": {"B1": {"name": "Lipopolysaccharide-induced tumor necrosis factor-alpha factor (Homo sapiens), Q99732 (parent)", "chain": "MSVPGPYQAATGPSSAPSAPPSYEETVAVNSYYPTPPAPMPGPTTGLVTGPDGKGMNPPSYYTQPAPIPNNNPITVQTVYVQHPITFLDRPIQMCCPSCNKMIVSQLSYNAGALTWLSCGSLCLLGCIAGCCFIPFCVDALQDVDHYCPNCRALLGTYKRL", "partner": "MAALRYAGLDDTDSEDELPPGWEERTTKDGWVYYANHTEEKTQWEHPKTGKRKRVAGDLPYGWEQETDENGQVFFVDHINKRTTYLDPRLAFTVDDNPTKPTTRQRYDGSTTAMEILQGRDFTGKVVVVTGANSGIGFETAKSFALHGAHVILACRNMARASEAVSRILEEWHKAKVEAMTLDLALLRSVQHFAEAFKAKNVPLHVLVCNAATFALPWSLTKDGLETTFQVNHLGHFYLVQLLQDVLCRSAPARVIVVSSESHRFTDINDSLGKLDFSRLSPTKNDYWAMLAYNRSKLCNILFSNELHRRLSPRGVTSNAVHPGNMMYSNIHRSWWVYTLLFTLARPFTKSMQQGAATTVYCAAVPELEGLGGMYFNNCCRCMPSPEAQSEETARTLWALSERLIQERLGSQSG"}, "B2": {"name": "WW domain-containing oxidoreductase (Homo sapiens), Q9NZC7 (parent)", "chain": "B1 partner"}, "B3": {"name": "WW domain-binding protein 1 (Homo sapiens), Q96G27 (parent)", "chain": "MARASSGNGSEEAWGALRAPQQQLRELCPGVNNQPYLCESGHCCGETGCCTYYYELWWFWLLWTVLILFSCCCAFRHRRAKLRLQQQQRQREINLLAYHGACHGAGPFPTGSLLDLRFLSTFKPPAYEDVVHRPGTPPPPYTVAPGRPLTASSEQTCCSSSSSCPAHFEGTNVEGVSSHQSAPPHQEGEPGAGVTPASTPPSCRYRRLTGDSGIELCPCPASGEGEPVKEVRVSATLPDLEDYSPCALPPESVPQIFPMGLSSSEGDIP", "partner": "B1 partner"}}}
{"variants_of": "B1", "settings": "with wwox_human WWOX"}
{"variant": "Y23A;Y61A", "effect of a mutation on the interaction": "disrupting interaction"}
{"variant": "Y23A", "effect of a mutation on the interaction": "decreasing interaction"}
{"variants_of": "B2", "settings": "with litaf_human LITAF"}
{"variant": "MAALRYAGLDDTDSEDELPPGWEERTTKDGWVYYANHTEEKTQWEHPKTGKRKRVAGDLPYGWEQETDENGQVFFVDHINKRTTALDARLAFTVDDNPTKPTTRQRYDGSTTAMEILQGRDFTGKVVVVTGANSGIGFETAKSFALHGAHVILACRNMARASEAVSRILEEWHKAKVEAMTLDLALLRSVQHFAEAFKAKNVPLHVLVCNAATFALPWSLTKDGLETTFQVNHLGHFYLVQLLQDVLCRSAPARVIVVSSESHRFTDINDSLGKLDFSRLSPTKNDYWAMLAYNRSKLCNILFSNELHRRLSPRGVTSNAVHPGNMMYSNIHRSWWVYTLLFTLARPFTKSMQQGAATTVYCAAVPELEGLGGMYFNNCCRCMPSPEAQSEETARTLWALSERLIQERLGSQSG", "note": "[Y85A;P88A]", "effect of a mutation on the interaction": "decreasing interaction"}
{"variant": "MAALRYAGLDDTDSEDELPPGWEERTTKDGWVYYANHTEEKTQFEHAKTGKRKRVAGDLPYGWEQETDENGQVFFVDHINKRTTYLDPRLAFTVDDNPTKPTTRQRYDGSTTAMEILQGRDFTGKVVVVTGANSGIGFETAKSFALHGAHVILACRNMARASEAVSRILEEWHKAKVEAMTLDLALLRSVQHFAEAFKAKNVPLHVLVCNAATFALPWSLTKDGLETTFQVNHLGHFYLVQLLQDVLCRSAPARVIVVSSESHRFTDINDSLGKLDFSRLSPTKNDYWAMLAYNRSKLCNILFSNELHRRLSPRGVTSNAVHPGNMMYSNIHRSWWVYTLLFTLARPFTKSMQQGAATTVYCAAVPELEGLGGMYFNNCCRCMPSPEAQSEETARTLWALSERLIQERLGSQSG", "note": "[W44F;P47A]", "effect of a mutation on the interaction": "disrupting interaction"}
{"variants_of": "B3", "settings": "with wwox_human WWOX"}
{"variant": "MARASSGNGSEEAWGALRAPQQQLRELCPGVNNQPYLCESGHCCGETGCCTYYYELWWFWLLWTVLILFSCCCAFRHRRAKLRLQQQQRQREINLLAYHGACHGAGPFPTGSLLDLRFLSTFKPPAYEDVVHRPGTPPPPATVAPGRPLTASSEQTCCSSSSSCPAHFEGTNVEGVSSHQSAPPHQEGEPGAGVTPASTPPSCRYRRLTGDSGIELCPCPASGEGEPVKEVRVSATLPDLEDYSPCALPPESVPQIFPMGLSSSEGDIP", "note": "[Y141A]", "effect of a mutation on the interaction": "disrupting interaction"}
